Measurements published in patent US10786550B2, “Blockade of CCL18 signaling via CCR6 as a therapeutic option in treating interstitial lung disease” (UNIVERSITÄTSKLINIKUM FREIBURG, priority 2010, dated 2020).
Entries after “also recorded” stand apart in the source; their conditions may differ.

T1: CCR6 (Homo sapiens, UniProt P51684)
T1 sequence (P51684 1-374): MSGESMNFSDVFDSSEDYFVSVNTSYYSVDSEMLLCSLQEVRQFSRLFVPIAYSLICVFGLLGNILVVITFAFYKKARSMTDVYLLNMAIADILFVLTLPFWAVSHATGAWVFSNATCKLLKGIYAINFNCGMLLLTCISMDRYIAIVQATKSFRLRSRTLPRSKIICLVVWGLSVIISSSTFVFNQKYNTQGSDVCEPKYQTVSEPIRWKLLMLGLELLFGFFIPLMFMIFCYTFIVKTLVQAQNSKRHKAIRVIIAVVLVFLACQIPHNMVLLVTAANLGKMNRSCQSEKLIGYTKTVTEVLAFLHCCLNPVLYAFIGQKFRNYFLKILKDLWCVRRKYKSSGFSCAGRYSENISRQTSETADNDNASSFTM


Assays:
[1] = system: RLE-6TN; assay: EMT of rat alveolar epithelial cell line RLE-6TN; type: cell-based; conditions: for differentiation into fibroblast-like cells (EMT, morphology): culture period 6 days
[2] = system: RLE-6TN; assay: EMT of rat alveolar epithelial cell line RLE-6TN; type: cell-based; conditions: 6 days
Experimental: (§1) If not otherwise mentioned cells were stimulated with 10 ng/ml human recombinant CCL18, 2.5 ng/ml TGFβ with or without additional 1 ng/ml TNFα.
After the indicated culture period the cells were washed once in PBS and lysed in ice cold lysis buffer. Whole cell lysates were boiled at 93° C. for 5 minutes in equal volumes of loading buffer (0.5M Tris-HCl pH 6.8, 2% SDS, 0, 05% bromphenolblue, 20% 2-mercaptoethanol, 10% Glycerol).
All samples were subjected to 12% sodium dodecylsulfate-PAGE, separated by electrophoresis and transferred to a polyvinylidene difluoride membrane (PVDF). After blocking for 2 h in Tris-buffered saline (TBS) containing 5% non-fat dry milk, the membranes were incubated with primary antibody (rabbit-anti-collagen I (Rockland, Gilbertsville Pa.); anti αSMA (rabbit-anti-aSMA (Abcam, Cambridge, Mass.); anti vimentin (Santa Cruz); anti CCR6: CKR6/C20, Santa Cruz) diluted 1:700 with TBS at 4° C. overnight. Visualization was performed using appropriate secondary antibodies labeled with IRDye 800CW or IRDye 700CW (Li-COR Bioscience, Bad Homburg, Germany) diluted 1:10 000-1:20000 for 2 h and scanned using Odyssey system (Li-COR Biosience) according to the manufactures instructions.

[3] = target: T1, CCR6; assay: αSMA induction in RLE-6TN transiently transfected with human CCR6; type: cell-based, rat; parameters: expressed in transfected cells; host or cells: RLE-6TN (rat alveolar epithelial cell line), transient transfection
Excerpt: In contrast, all stimulations induced the expression of CD90 (FIGS. 9B and C) although CD90 expression was more intense using CCL18. […] The cells were therefore transiently transfected with a commercially available plasmid containing a DNA sequence coding for human CCR6.

[4] = target: T1, CCR6; assay: Inhibition of CCL18-induced CCR6 down-regulation on PBMNC/lymphocytes (FACS); type: cell-based; parameters: endogenous in cells; host or cells: freshly isolated human peripheral blood mononuclear cells; conditions: for CCL18 induced down-regulation of CCR6 expression in presence of inhibitor: CCL18 10 ng/ml + inhibitor 100 ng/ml, FACS
Experimental: Freshly isolated mononuclear cells were incubated for 20 minutes with 10 ng/ml of CCL18, 100 ng/ml of the inhibitor peptide PS-AU-105 (polypeptide according to SEQ ID NO.: 9), a combination of both or were left untreated. The incubation was performed in RPMI1640 with 10% fetal calf serum and 100 U/ml Streptomycin/Penicillin at 37° C. After the incubation, the cells were centrifugated and the supernatant was discarded. The cells were fixed with 4% paraformaldehyde for 5 minutes on ice and washed twice in PBS containing 1% FCS. After fixation the cells were stained using a fluorescein-conjugated antibody against CCR6 (R&D systems, Wiesbaden, FRG) and analyzed by flow cytometry (FACScalibur and Quantiquest; both Becton Dickinson, Franklin Lakes, USA).

[5] = system: soluble CCR6 (sCCR6); assay: Blocking of free soluble CCR6 detection by ELISA; type: binding, human; conditions: ligand 100 ng/ml, 1 h
Experimental: Sera were diluted with an equal volume of PBS/BSA (1% bovine serum albumin, Sigma, Deisenhofen, Germany) either without any additives or containing CCL18 or CCL20 (both PeproTech, Hamburg, Germany; 100 ng/ml each). The diluted sera were then incubated for 1 h at 37° C. and subsequently measured by ELISA.
The sCCR6 ELISA described in Example 8 uses a monoclonal anti-CCR6 antibody as a capture antibody bound at the plate and a biotin-conjugated polyclonal anti-CCR6 antibody as a detection antibody. Most of the monoclonal anti CCR6 antibodies are directed against the N-terminal part of the receptor bearing the ligand binding site. In order to test whether the antibody recognition site of the sCCR6 molecule in sera from fibrotic patients might be covered with the ligand because of the high abundance of CCL18 in these sera, sera from healthy volunteers were incubated with 100 ng/ml of CCL18 or CCL20, respectively and sCCR6 was measured in blocked and unblocked sera by ELISA. Addition of these CCR6 ligands leads to a marked reduction of the sCCR6 signal (FIG. 20).

[6] = system: A549; assay: EMT induction by CCL18 in adenocarcinoma cell line A549; type: cell-based, human
Experimental: Cells of the adenocarcinoma cell line A549 were seeded in 6-well plates and allowed to adhere over night. After adherence the cells were stimulated with the indicated amount of CCL18. TGFβ was used as a positive control. […]

[7] = target: T1, CCR6; assay: CCL18-induced collagen I and αSMA mRNA expression in human lung fibroblast lines (real-time PCR); type: cell-based; parameters: endogenous in cells; conditions: four human lung fibroblast cell lines
Experimental: as §1
After the indicated culture period total RNA was extracted using TRIzol Reagent according to the manufacturer's protocol (Invitrogen, Karlsruhe, Germany). Total RNA was reverse-transcribed with StrataScript RT (Stratagene, Santa Clara, Calif.) using oligo (dT)12-18 primer to produce cDNA according to the manufacturer's protocol. Specific primers for human CCR6, collagen type I, alpha-smooth muscle actin and GAPDH were designed using Primer3 software (Whitehead Institute for Biomedical Research, Cambridge, USA; http://frodo.wi.mit.edu/cgi-bin/primer3/primer3_www.cgi), Amplify1.2 software (University of Wisconsin, USA; http://engels.genetics.wisc.edu/amplify) using LocusLink and GenBank databases (National Center for Biotechnology Information; http://www.ncbi.nlm.nih.gov/LocusLink/index.html). Accession code numbers for the nucleotide sequences used to generate the respective primers and the primer sequences are depicted in FIG. 17.
All primers were intron-spanning and synthesized by MWG-Biotech (MWG-Biotech AG, Germany). […] A threshold cycle value (Ct) was calculated and used to compute the relative level of specific mRNA by the following formula: “relative expression=2^(Ct GAPDH-Ct CCL18)×10,000” for each cDNA sample.

[8] = system: human primary AECII; assay: EMT of human primary alveolar epithelial cells type II; type: cell-based
Experimental: as §1
AECII were isolated as described previously (2). In brief, macroscopically tumor-free lung tissue was first sliced and slices were washed three times at 4° C. in phosphate-buffered saline (PBS) and then digested in sterile dispase solution (2.5 mg dispase II (Invitrogen GmbH, Karlsruhe, Germany) ml and 50 μg/ml DNase I (Roche Diagnostics, Mannheim, Germany)) at 37° C. for 60 minutes. After dispase digestion, the slices were thoroughly pipetted for several minutes using a 10 ml pipette with a wide inlet. Crude tissue and cell suspensions were filtered through nylon gauze with meshes of 50 and 20 μm. The cell suspension was then layered onto a density gradient solution (PAN Biotech GmbH, Aidenbach, Germany) and centrifuged at 800×g for 20 min.
The cells from interphase were washed and incubated in 100 mm Petri dishes (max. 6×10^7 cells/dish) in RPMI (Invitrogen, Karlsruhe, Germany) with 10% fetal calf serum (FCS) (PAA Laboratories GmbH, Colbe, Germany) and 1% penicillin/streptomycin (Biochrom AG, Berlin, Germany) at 37° C. in humidified incubator (5% CO2, 37° C.) for 15, 20 and if possible 30 minutes to remove adherent (mostly alveolar macrophages, monocytes and fibroblasts) from non-adherent cells. […]

[9] = target: T1, CCR6; assay: CCL18-induced FGF2 release by lung fibroblasts (FGF2 ELISA); type: cell-based; parameters: endogenous in cells; conditions: CCL18 10 ng/ml, 24 h
Experimental: To estimate CCL18-induced FGF2 release fibroblasts were harvested, counted and seeded 300.000 cells per well in a 6-well cell culture plate in Quantum 333. Cells were allowed to attach over night and the medium was replaced with 1 ml of DMEM plus 10% FCS. Cells were either left un-stimulated or were stimulated with 10 ng/ml of human recombinant CCL18. To block CCR6/CCL18 interaction a blocking antibody against CCR6 (R&D systems, Wiesbaden, FRG) or an irrelevant antibody (mouse anti human IgG, R&D Systems) was added to a final concentration of 20 μg/ml in parallel cultures. After 24 h of culture the supernatant was harvested and stored at −80° C. until FGF2 determination.

[10] = sera with low and medium sCCR6 concentrations
[11] = serum with high sCCR6 concentration

| Molecule | differentiation into fibroblast-like cells (EMT, morphology) [1] | αSMA expression (fluorescence microscopy) ([1]; day 6) | vimentin expression (Western Blot) [2] | αSMA expression (Western Blot) [2] | αSMA expression in CCR6 transfected versus mock transfected cells [3] | sCCR6 detection by ELISA after ligand addition [5, 10] | reduction of sCCR6 ELISA signal [5, 11] | sCCR6 detection by ELISA after ligand addition [5, 11] | also measured |
| --- | --- | --- | --- | --- | --- | --- | --- | --- | --- |
| TGFβ: cytokine stimulus used as positive control for EMT [reference compound] | undergoes epithelial-mesenchymal transition (EMT); also recorded: more pronounced | induces αSMA expression | failed to induce the expression of vimentin | strong expression of αSMA | induced αSMA expression in both cell types; also recorded: induce αSMA expression in both cell lines |  |  |  |  |
| PS-AU-105: inhibitor peptide, polypeptide according to SEQ ID NO.: 9, binds to and inhibits CCR6 receptor (EDCCLVYTSWQIHPKFIVDYSETSPQCPK; peptide inhibitor of CCR6) |  |  |  |  |  |  |  |  | CCL18 induced down-regulation of CCR6 expression in presence of inhibitor ([4]; 20 minutes): diminished; also recorded: fails to down-regulate the CCR6+ sub-population; CCL18 induced down-regulation of CCR6 expression in presence of inhibitor ([4]; 20 minutes, listed as PS-AU-1015): this down-regulation does not occur; effect of inhibitor only on CCR6 expression ([4]; inhibitor 100 ng/ml without CCL18, 20 minutes): no effect |
| CCL20: Chemokine ligand 20, CCR6 ligand (PeproTech) [reference compound] |  |  |  |  |  | nearly abolishes CCR6 detection; also recorded: totally blocked | 14% | reduced by one third |  |
| CCL18: human recombinant CCL18, chemokine ligand 18, ligand/agonist of CCR6 receptor (protein) AQVGTNKELCCLVYTSWQIPQKFIVDYSETSPQCPKPGVILLTKRGRQICADPNKKWVQKYISDLKLNA | undergoes epithelial-mesenchymal transition (EMT); also recorded: induces a differentiation into spindle-shaped, fibroblast-like cells | did not | expression of vimentin | Only a faint expression of αSMA | induced αSMA in CCR6 transfected cells, but not in mock transfected cells; also recorded: found in CCR6 transfected RLE-6TN but not in mock-transfected cells | nearly abolishes CCR6 detection; also recorded: totally blocked | 36% | reduced by one third | CCR6 surface expression after incubation with CCL18 ([4]; CCL18 10 ng/ml, 20 minutes): decrease in the percentage of CCR6^+ cells; also recorded: marked down-regulation; also recorded: diminishes the peak markedly; FSP1 mRNA expression (qPCR) ([6]; 72 h): marked and dose dependent up-regulation; also recorded: up-regulation of FSP1 expression; snail expression (western blot) ([6]; 72 h): induces dose-dependently the expression; also recorded: induces snail expression; E-cadherin expression (qPCR) ([6]; b569: after 24 h, b77: after 72 h): substantially down-regulated; also recorded: down-regulation of E-cadherin expression; CD90 expression (immuno-fluorescence) ([1]; day 6): more intense; collagen I mRNA expression induced [7]: three out of four; also recorded: up-regulates collagen I expression in three of four cell lines; αSMA and vimentin expression (Western blot) ([8]; 12 days): strongly up-regulates both molecules; induction of EMT ([8]; CCL18 with or without TNFα): induces EMT; FGF2 release on CCL18 stimulation ([9]; fibroblasts from fibrotic lungs): significant up-regulation; also recorded: further up-regulated; FGF2 release on CCL18 stimulation ([9]; fibroblasts from non-fibrotic lungs): only marginal; also recorded: only marginally |
